Paper PMC5286356

Target: bovine heart cytochrome c oxidase (bovine) (UniProt P00396)
Assay: crystal structure; co-crystallised by the batch-wise method at 277 K; 15 mM sodium phosphate pH 8.0, DM and FOM, Cyt.c/CcO molar ratio 1.2, ~5% PEG 4000; ferri-Cyt.c and oxidized CcO; crystals soaked with 50 uM Cyt.c; refined at 2.0 A

bovine heart cytochrome c oxidase (from UniProt P00396 1-514; P68530 1-227; P00429 1-86) (complex)
stoichiometry N: 2
